Results: patent publication EP3418296A1

Assays:
[1] = target: PA-1 cultured ovarian cells (unnamed cell surface lectin receptors); assay: lectin binding to cultured PA-1 cells, lectin alone (method not described)
[2] = target: Jurkat cultured leukemic cells (unnamed cell surface lectin receptors); assay: lectin binding to cultured Jurkat cells, lectin alone (method not described)
[3] = target: Molt 4 cultured leukemic cells (unnamed cell surface lectin receptors); assay: lectin binding to cultured Molt 4 cells, lectin alone (method not described)
[4] = target: COLO 205 cultured colon cells (unnamed cell surface lectin receptors); assay: lectin binding to cultured COLO 205 cells, lectin alone (method not described)
[5] = target: native Sclerotium rolfsii lectin (SRL) (Sclerotium rolfsii); assay: inhibition by mucin of native lectin binding to PA-1 cells
[6] = target: native Sclerotium rolfsii lectin (SRL) (Sclerotium rolfsii); assay: inhibition by mucin of native lectin binding to Jurkat cells
[7] = target: native Sclerotium rolfsii lectin (SRL) (Sclerotium rolfsii); assay: inhibition by mucin of native lectin binding to Molt 4 cells
[8] = target: native Sclerotium rolfsii lectin (SRL) (Sclerotium rolfsii); assay: inhibition by mucin of native lectin binding to COLO 205 cells

Substance | % positive cells [1] | % positive cells [2] | % positive cells [3] | % positive cells [4] | % positive cells (lectin + mucin) [5] | % positive cells (lectin + mucin) [6] | % positive cells (lectin + mucin) [7] | % positive cells (lectin + mucin) [8]
native Sclerotium rolfsii lectin (SRL) | 96.7% | 33.8% | 88.5% | 91.7% | – | – | – | –
mucin | – | – | – | – | 1.63% | 0.5% | 0.24% | 0.99%
